Measurements as given in patent US20240182563A1 (GENOME, published 2024).

T1: human CNTN4 antigen expressed on the cell membrane of 293FT cells (human) (UniProt Q8IWV2)
T1 sequence (looked up): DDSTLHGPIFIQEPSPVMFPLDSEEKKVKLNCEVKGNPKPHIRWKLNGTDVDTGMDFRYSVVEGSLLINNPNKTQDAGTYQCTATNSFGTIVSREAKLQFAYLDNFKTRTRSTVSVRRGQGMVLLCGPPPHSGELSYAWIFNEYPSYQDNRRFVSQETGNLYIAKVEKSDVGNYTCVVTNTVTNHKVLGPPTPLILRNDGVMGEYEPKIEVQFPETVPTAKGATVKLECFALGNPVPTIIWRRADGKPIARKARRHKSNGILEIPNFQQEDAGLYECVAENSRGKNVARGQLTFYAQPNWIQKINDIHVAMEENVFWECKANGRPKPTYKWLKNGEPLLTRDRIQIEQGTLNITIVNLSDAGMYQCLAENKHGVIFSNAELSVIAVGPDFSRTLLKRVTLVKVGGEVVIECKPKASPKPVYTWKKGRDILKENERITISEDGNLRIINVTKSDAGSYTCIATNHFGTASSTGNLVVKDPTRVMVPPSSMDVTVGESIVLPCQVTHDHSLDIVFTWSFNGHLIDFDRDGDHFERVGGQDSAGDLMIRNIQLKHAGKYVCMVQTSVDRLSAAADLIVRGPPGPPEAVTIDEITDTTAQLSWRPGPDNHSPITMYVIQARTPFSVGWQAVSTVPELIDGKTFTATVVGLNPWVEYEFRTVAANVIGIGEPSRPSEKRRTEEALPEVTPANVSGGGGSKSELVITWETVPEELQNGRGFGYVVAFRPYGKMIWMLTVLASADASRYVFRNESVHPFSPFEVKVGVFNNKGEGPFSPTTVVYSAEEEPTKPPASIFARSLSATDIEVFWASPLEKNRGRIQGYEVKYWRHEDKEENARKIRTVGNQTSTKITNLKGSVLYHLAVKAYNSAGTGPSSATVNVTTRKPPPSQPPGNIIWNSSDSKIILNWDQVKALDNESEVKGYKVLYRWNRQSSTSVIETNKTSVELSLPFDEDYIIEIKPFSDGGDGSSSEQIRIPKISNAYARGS

T2: mouse CNTN4-rabbit Fc (mouse; rabbit, UniProt Q69Z26 19-1000, limits assumed)
T2 construct: not shown: rabbit Fc
T2 sequence (looked up): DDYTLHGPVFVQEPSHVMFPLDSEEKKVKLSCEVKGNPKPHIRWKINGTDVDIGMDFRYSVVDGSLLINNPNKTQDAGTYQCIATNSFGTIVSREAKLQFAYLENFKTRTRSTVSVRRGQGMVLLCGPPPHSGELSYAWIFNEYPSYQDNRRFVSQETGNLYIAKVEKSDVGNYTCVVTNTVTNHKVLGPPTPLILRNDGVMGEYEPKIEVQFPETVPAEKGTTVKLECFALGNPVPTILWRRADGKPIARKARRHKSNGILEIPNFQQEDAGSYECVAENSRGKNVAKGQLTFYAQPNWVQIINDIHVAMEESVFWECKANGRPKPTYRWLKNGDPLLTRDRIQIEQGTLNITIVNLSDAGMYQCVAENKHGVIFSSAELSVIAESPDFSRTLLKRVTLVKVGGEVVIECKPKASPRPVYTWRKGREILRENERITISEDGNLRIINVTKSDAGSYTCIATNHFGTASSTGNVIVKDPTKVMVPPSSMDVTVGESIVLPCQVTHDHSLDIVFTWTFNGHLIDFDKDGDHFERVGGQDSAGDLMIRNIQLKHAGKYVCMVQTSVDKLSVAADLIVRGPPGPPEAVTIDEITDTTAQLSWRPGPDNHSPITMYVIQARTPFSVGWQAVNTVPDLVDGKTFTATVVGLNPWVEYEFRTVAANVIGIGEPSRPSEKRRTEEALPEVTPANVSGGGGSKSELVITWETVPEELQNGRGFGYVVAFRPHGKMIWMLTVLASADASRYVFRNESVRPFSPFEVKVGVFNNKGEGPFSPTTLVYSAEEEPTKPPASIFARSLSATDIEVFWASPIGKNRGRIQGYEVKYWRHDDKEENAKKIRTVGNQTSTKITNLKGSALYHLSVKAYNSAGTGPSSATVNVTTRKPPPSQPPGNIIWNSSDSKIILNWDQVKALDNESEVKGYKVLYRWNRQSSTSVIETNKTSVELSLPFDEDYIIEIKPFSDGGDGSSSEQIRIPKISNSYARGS

T3: human CNTN4-rabbit Fc (human; rabbit, UniProt Q8IWV2 19-1000, limits assumed)
T3 construct: not shown: rabbit Fc
T3 sequence (looked up): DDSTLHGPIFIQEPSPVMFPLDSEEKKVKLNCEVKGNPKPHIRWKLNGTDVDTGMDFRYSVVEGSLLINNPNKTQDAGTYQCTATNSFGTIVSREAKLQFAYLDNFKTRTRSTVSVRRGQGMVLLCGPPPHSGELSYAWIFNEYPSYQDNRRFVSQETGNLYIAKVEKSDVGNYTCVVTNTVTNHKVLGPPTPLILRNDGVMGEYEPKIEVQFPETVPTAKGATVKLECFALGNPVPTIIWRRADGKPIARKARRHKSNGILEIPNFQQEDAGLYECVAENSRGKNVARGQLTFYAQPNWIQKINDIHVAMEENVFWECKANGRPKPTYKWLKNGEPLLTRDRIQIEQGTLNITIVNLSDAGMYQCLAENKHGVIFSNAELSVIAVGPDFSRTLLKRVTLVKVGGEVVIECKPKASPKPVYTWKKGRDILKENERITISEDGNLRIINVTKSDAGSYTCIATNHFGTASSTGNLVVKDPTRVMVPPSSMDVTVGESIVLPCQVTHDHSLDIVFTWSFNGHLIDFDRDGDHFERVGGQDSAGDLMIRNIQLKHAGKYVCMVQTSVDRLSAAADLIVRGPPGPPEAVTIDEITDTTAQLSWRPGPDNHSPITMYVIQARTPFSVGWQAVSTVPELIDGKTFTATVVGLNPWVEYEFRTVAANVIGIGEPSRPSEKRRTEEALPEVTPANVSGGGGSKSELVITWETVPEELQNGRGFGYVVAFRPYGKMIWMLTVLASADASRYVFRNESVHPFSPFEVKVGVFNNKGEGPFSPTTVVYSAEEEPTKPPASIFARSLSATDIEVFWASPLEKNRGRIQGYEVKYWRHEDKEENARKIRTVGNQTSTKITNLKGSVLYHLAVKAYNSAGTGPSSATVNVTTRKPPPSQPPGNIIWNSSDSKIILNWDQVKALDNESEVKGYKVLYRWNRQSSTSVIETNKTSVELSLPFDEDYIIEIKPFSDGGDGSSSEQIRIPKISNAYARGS


Columns and labels:
[1] = target: T1, human CNTN4 antigen expressed on the cell membrane of 293FT cells (human); test: FACS, 293FT cells transfected with human CNTN4, 40 ug/mL, anti-hCk-PE
mouse CNTN4-rabbit Fc = target: T2, mouse CNTN4-rabbit Fc; test: ELISA, plate coated with antigen-rabbit Fc, anti-human kappa-HRP
human CNTN4-rabbit Fc = target: T3, human CNTN4-rabbit Fc; test: as above

Row | Binder | Shift % [1] | EC50 (mouse CNTN4-rabbit Fc) | EC50 (human CNTN4-rabbit Fc)
1 | anti-CNTN4 scFv-hCk S96 (scFv, part only; not given: linker and kappa constant region, V domains shown, not shown: another chain or arm of the molecule; a dimerising Fc or GST; small tags and cut ends) VL: ALTQPSSVSANPGETVKITCSGSSGSYGYSWHQQKSPGSAPVTVIYESNKRPSNIPSRFSGSTSGSTSTLTITGVQADDEAVYFCGSADSSTTIAFGAGTTLTVL VH: AVTLDESGGGLQTPGGTLSLVCKASGFTFSTYSMQWLRQAPGKGLEWVAGISNSGSSTVYGPAVKGRATISRDNGQSTVSLQLNNLRAEDTGTYYCAKSTYGGSWYAAYSIDEWGHGTEVIVSS | 1.69% | – | –
2 | anti-CNTN4 scFv-hCk S1 (scFv, part only; not given: linker and kappa constant region, not shown: a dimerising Fc or GST) scFv, part: ALTQPSSVSANPGETVKITCSGGSSYGWYQQKSPGSAPVTVIYDNTNRPSNIPSRFSGSKSGSTNTLTITGVRAEDEAVYFCGGYDSSIDAFGAGTTLTVLAVTLDESEGGLQTPGGALSLVCKASGFTFSSFNMFWVRQAPGKGLEYVAEISGGGGSTWYAPAVKGRATISRDNGQSTVRLQLNNLRAEDTGTYYCAKSADTWSYGAATIDAWGHGTEVIVSS | 13.8% | 1.53 nM | 4.44 nM
3 | anti-CNTN4 scFv-hCk S4 (scFv, part only; not given: linker and kappa constant region, not shown: a dimerising Fc or GST) scFv, part: ALTQPSSVSANPGESVKITCSGGGSSYYGWYQQKSPGSAPVTLIYQNTNRPSNIPSRFSGSGSGSTGTLTITGVRAEDEAVYYCGGYDGSTDVFGAGTTLTVLAVTLDESEGGLQTPGGALSLVCKASGFTFSSFNMFWVRQAPGKGLEYVAEISGGGGSTWYASAVKGRATISRDNGQSTVRLQLNNLRAEDTGTYYCAKSADTWSYGAATIDAWGHGTEVIVSS | 15.4% | 1.15 nM | 2.6 nM
4 | anti-CNTN4 scFv-hCk S24 (scFv, part only; not given: linker and kappa constant region, not shown: a dimerising Fc or GST) scFv, part: ALTQPSSVSANPGETVEITCSGGSGSYGWYQQKAPGSAPVTVIYDNTNRPSNIPSRFSGSGSDSTGTLTITGVQADDEAVYYCGSYDSIEVIFGAGTTLTVLAVTLDESGGGLHTPGGALSLVCKASGFTFSSYGMAWVRQAPGKGLEWVAGITSSGSSAGYGPAVKGRATISRDNGQSTVRLQLNNLRAEDTATYYCAKDGYIYSGGDSDSIDAWGHGTEVIVSS | 5.63% | 2.07 nM | 1.12 nM
5 | anti-CNTN4 scFv-hCk S46 (scFv, part only; not given: linker and kappa constant region, not shown: a dimerising Fc or GST) scFv, part: ALTQPSSVSANPGETVEITCSGGSGSYGWYQQKAPGSAPVTVIYDNTNRPSNIPSRFSGSGSDSTGTLTITGVQADDKAVYYCGSYDSIEVIFGAGTTLTVLAVTLDESGGGLHTPGGALSLVCKASGFTFSSYGMAWVRQAPGKGLEWVAGITSSGSSAGYGPAVKGRATISRDNGQSTVRLQLNNLRAEDTATYYCAKDGYIYSGADSDSIDAWGHGTEVIVSS | 8.19% | 1.2 nM | 1.22 nM

More lines, in order of falling EC50 (mouse CNTN4-rabbit Fc), values ahead:

Row | Shift % [1] | EC50 (mouse CNTN4-rabbit Fc) | EC50 (human CNTN4-rabbit Fc) | Binder
6 | 16.6% | 0.56 nM | 0.74 nM | anti-CNTN4 scFv-hCk S131 (scFv, part only; not given: linker and kappa constant region, not shown: a dimerising Fc or GST) scFv, part: ALTQPSSVSANLGGTVKITCSGGGSSYYGWYQQKSPGSAPVTLIYQNTNRPSNIPSRFSGSGSGSTGTLTITGVRAEDEAVYYCGGYDGSTDVFGAGTTLTVLAVTLDESEGGLQTPGGALSLVCKASGFTFSSFNMFWVRQAPGKGLEYVAEISGGGGSTWYAPAVKGRATISRDNGQSTVRLQLNNLRAEDTGTYYCAKSADTWSYGAATIDAWGHGTEVIVSS
7 | 15.3% | 0.52 nM | 0.41 nM | anti-CNTN4 scFv-hCk S137 (scFv, part only; not given: linker and kappa constant region, not shown: a dimerising Fc or GST) scFv, part: ALTQPSSVSANPGETVKITCSGGSSYGWYQQKSPGSAPVTVIYDNTNRPSNIPSRFSGSKSGSTNTLTITGVQAEDEAVYYCGGYDGSTDAFGAGTTLTVLAVTLDESEGGLQTPGGALSLVCKASGFTFSSFNMFWVRQAPGKGLEYVAEISGGGGSTWYAPAVKGRATISRDNGQSTVRLQLNNLRAEDTGTYYCAKSADTWSYGAATIDAWGHGTEVIVSS
